Results reported in patent publication US20240132603A1 (HARBOUR BIOMED US, published 2024).
Where two headings read alike, the source gives them in different places.

What was measured:
human CCR8 [1] = target: T1, human CCR8 (human, UniProt P51685 1-355); test: FACS, CHO-K1-hCCR8 cells
T1 construct: whole, on cells; construct used for the overexpressing cell lines is not described; also called hCCR8
Summary of the method: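 Binding was measured on intact cells by two-step staining at 4 °C. Test antibodies were applied from 200 nM in 5-fold steps for 1 h, and a secondary reagent at 1:1000 for 40 min, before analysis on a FACS instrument.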

cynomolgus monkey CCR8 [2] = target: T2, cynomolgus monkey CCR8 (cynomolgus monkey, UniProt G7NYJ2 1-355); test: FACS, CHO-K1-CynoCCR8 cells
T2 construct: whole, on cells; also called CynoCCR8
Summary of the method: (§1)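 Anti-CCR8 antibodies titrated in 5-fold steps from 200 nM onto 1E6 cells/mL CHO-K1-CynoCCR8 in DPBS/2% FBS, 1 h at 4 °C. Bound antibody detected with 1:1000 secondary antibody, 40 min at 4 °C, then flow cytometry.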

cynomolgus monkey CCR8 [3] = target: T2, cynomolgus monkey CCR8; test: FACS on CHO-K1 cells overexpressing cynomolgus monkey CCR8
Procedure: (§2) Cells overexpressing cynomolgus monkey CCR8, CHO-K1-CynoCCR8, were digested with pancreatin, counted and resuspended to a cell density of 1E6 cells/mL. The cell suspension was added to a 96-well V-bottom plate at 100 μL/well and centrifuged at 300 g for 5 min, and the supernatant was discarded. The anti-CCR8 antibodies provided herein was used as a primary antibody and diluted in a 5-fold gradient with an FACS buffer (DPBS containing 2% FBS) from 200 nM. The diluted primary antibody was added at 100 μL/well to resuspend the cells, and the mixture was incubated at 4° C. for 1 h. The plate was washed twice with DPBS and centrifuged at 300×g for 5 min, and the supernatant was discarded. The secondary antibody diluted in a 1:1000 ratio with an FACS buffer was added at 100 μL/well to suspend the cells, and the mixture was incubated at 4° C. for 40 min. The plate was washed twice with DPBS and centrifuged at 300×g for 5 min, and the supernatant was discarded. DPBS was added at 200 μL/well to suspend the cells, and the mixture was loaded on an FACS machine for analysis.

human CCR8 [4] = target: T1, human CCR8; test: FACS, HEK293-hCCR8 cells
Procedure: as §2, with “human CCR8” for “cynomolgus monkey CCR8, CHO-K1-CynoCCR8,”

human CCR8 [5] = target: T1, human CCR8; test: FACS competition on HEK293-hCCR8 cells against a biotin-labelled anti-CCR8 antibody at its EC80; the labelled antibody of this panel is not named on the sheet
Procedure: (§3) The antibody was conjugated with Sulfo-NHS-LC-Biotin at a molar ratio of 5:1 (1 mol antibody was added to 5 mol Sulfo-NHS-LC-Biotin) with reference to the product instructions (ThermoFisher, Cat No. A39257) and incubated on ice for 2 h. The coupled antibody was purified with a Zeba desalting column (ThermoFisher, Cat No. 89882). Cells overexpressing human CCR8, HEK293-hCCR8, were added to a V-bottom 96-well plate at a density of 1E5 cells/well and centrifuged at 300 g for 5 min, and the supernatant was discarded. The competitive antibody was serially diluted in a ratio of 1:10 from 200 nM to obtain 8 concentration points. The Biotin-antibody and the competition antibody were mixed in a 1:1 ratio on an HEK293 cell line overexpressing human CCR8 by the binding EC₈₀ concentration. The cells in the 96-well plate were resuspended and incubated at 4° C. for 1 h. The plate was washed twice with DPBS at 200 μL/well. The secondary antibody diluted in a 1:1000 ratio was added at 100 μL/well, and the mixture was incubated at 4° C. for 40 min. The plate was washed twice with DPBS at 200 μL/well. Finally, DPBS was […] at 200 μL/well to suspend the cells, and the mixture was loaded on an FACS machine for analysis.

human CCR8 [6] = target: T1, human CCR8; test: as above; remark: listed apart in the source
Procedure: as §3

human CCR8 [7] = target: T1, human CCR8; test: as above; remark: listed apart in the source
Procedure: as §3

cynomolgus monkey CCR8 [8] = target: T2, cynomolgus monkey CCR8; test: FACS, CHO-K1-CynoCCR8 cells; remark: listed apart in the source
Summary of the method: as §1

human CCR8 [9] = target: T1, human CCR8; test: FACS competition on HEK293-hCCR8 cells against a biotin-labelled anti-CCR8 antibody at its EC80; the labelled antibody of this panel is not named on the sheet; remark: listed apart in the source
Procedure: as §3

human CCR8 [10] = target: T1, human CCR8; test: as above; remark: listed apart in the source
Procedure: as §3

human CCR8 [11] = target: T1, human CCR8; test: FACS, HEK293-hCCR8 cells; remark: listed apart in the source
Procedure: as §2, with “human CCR8” for “cynomolgus monkey CCR8, CHO-K1-CynoCCR8,”

cynomolgus monkey CCR8 [12] = target: T2, cynomolgus monkey CCR8; test: FACS, CHO-K1-CynoCCR8 cells; remark: listed apart in the source
Procedure: as §2

human CCR8 [13] = target: T1, human CCR8; test: cell-based or functional assay
human CCR8 [14] = target: T1, human CCR8; test: cell-based or functional assay; remark: listed apart in the source
human CCR8 [15] = target: T1, human CCR8; test: FACS, Baf3-hCCR8 cells
Procedure: as §2, with “human CCR8” for “cynomolgus monkey CCR8, CHO-K1-CynoCCR8,”

human CCR8 [16] = target: T1, human CCR8; test: FACS on CHO-K1 cells overexpressing human CCR8
Procedure: as §2, with “human CCR8” for “cynomolgus monkey CCR8, CHO-K1-CynoCCR8,”

human CCR8 [17] = target: T1, human CCR8; test: FACS, CHO-K1-hCCR8 cells; remark: listed apart in the source
Procedure: as §2, with “human CCR8” for “cynomolgus monkey CCR8, CHO-K1-CynoCCR8,”

T2 sequence (G7NYJ2 entry or part of it): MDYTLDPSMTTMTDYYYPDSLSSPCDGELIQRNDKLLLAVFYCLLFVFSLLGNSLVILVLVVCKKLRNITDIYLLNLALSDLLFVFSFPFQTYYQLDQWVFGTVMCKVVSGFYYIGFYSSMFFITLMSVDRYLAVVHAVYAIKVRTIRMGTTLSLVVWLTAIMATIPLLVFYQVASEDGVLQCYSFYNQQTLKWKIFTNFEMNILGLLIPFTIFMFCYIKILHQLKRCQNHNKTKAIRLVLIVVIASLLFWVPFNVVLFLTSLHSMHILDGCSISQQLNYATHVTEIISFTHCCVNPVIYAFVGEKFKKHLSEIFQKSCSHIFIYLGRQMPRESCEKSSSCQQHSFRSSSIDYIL
T1 sequence (P51685 whole entry): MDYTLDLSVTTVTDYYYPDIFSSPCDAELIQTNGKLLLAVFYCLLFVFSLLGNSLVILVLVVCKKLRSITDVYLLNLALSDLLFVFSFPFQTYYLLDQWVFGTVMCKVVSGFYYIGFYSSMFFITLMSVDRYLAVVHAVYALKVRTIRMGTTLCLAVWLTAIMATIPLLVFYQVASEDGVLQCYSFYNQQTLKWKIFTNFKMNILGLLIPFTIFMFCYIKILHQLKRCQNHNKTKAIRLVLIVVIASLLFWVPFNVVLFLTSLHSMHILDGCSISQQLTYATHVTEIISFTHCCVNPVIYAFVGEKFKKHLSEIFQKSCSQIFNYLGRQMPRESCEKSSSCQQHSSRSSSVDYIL

B1: PR004668 (antibody, human IgG1, kappa)
heavy: not shown
light: DIVMTQSPLSLPVTPGEPASISCRSSKSLLHSNGKIYLYWFLQKPGQSPQLLIYRMSNLASGVPDRFSGSGSGTDFTLKISRVEAEDVGVYYCMQHLEYPLTFGQGTKLEIKRTVAAPSVFIFPPSDEQLKSGTASVVCLLNNFYPREAKVQWKVDNALQSGNSQESVTEQDSKDSTYSLSSTLTLSKADYEKHKVYACEVTHQGLSSPVTKSFNRGEC
notes: humanized; same VH/VL as PR004520, other heavy chain entry
EC50 (human CCR8 [1]): 0.62 nM | EC50 (cynomolgus monkey CCR8 [2]): 1.88 nM | EC50 (read off the curve) (cynomolgus monkey CCR8 [3]): ~2 nM

B2: PR004125 (antibody, human IgG1, kappa)
heavy: not shown
light: DIVMTQAAPSVPVTPGESVSISCRSSKSLLHSNGNTYLYWFLQRPGQSPQLLIYRMSNLASGVPDRFSGSGSGTAFTLRISRVEAEDVGVYYCMQHLEYPLTFGAGTKLEMKRTVAAPSVFIFPPSDEQLKSGTASVVCLLNNFYPREAKVQWKVDNALQSGNSQESVTEQDSKDSTYSLSSTLTLSKADYEKHKVYACEVTHQGLSSPVTKSFNRGEC
notes: chimeric, human IgG1 constant region
EC50 (human CCR8 [4]): 0.66 nM | IC50 (read off the curve) (human CCR8 [5]): ~2 nM | IC50 (read off the curve) (human CCR8 [6]): ~2 nM | IC50 (read off the curve) (human CCR8 [7]): ~3 nM | EC50 (cynomolgus monkey CCR8 [8]): 1.16 nM | IC50 (read off the curve) (human CCR8 [9]): ~2 nM | IC50 (read off the curve) (human CCR8 [10]): 1 to 2 nM | EC50 (human CCR8 [11]): 0.72 nM | EC50 (human CCR8 [1]): 0.5 nM | EC50 (cynomolgus monkey CCR8 [12]): 2.44 nM | Bottom %, blocking of CCL1-stimulated calcium flux (human CCR8 [13]): 23% | IC50(nM), blocking of CCL1-stimulated calcium flux (human CCR8 [13]): 1.16 nM | EC50, ADCC reporter gene activity (Jurkat/FcγR III-NFAT effector cells) (human CCR8 [14]): 0.59 nM | EC50 (human CCR8 [15]): 0.21 nM

B3: PR005170 (antibody, human IgG1, kappa, V domains shown)
VH: EVQLVESGGGLVQPKGSLKLSCAASGFTFNTYAMNWVRQAPGKGLEWVARIRSKSNNYATYYADSVKDRFTISRDDSQSMLYLQMNNLKTEDTAMYYCVRGKENGNYYAMDFWGQGTSVTVSA
VL: DIVMTQAAPSVPVTPGESVSISCRSSKSLLHSNGKIYLYWFLQRPGQSPQLLIYRMSNLASGVPDRFSGSGSGTAFTLRISRVEAEDVGVYYCMQHLEYPITFGAGTKLEIKR
notes: heavy chain entry as PR004128
EC50 (read off the curve) (human CCR8 [16]): ~1 nM

B4: PR005171 (antibody, human IgG1, kappa, V domains shown)
VH: EVQLVESGGGLVQPKGSLKLSCAASGFTFNTYAMNWVRQAPGKGLEWVARIRSKSNNYATYYADSVKDRFTISRDDSQSMLYLQMNNLKTEDTAMYYCVRGKENGNYYAMDFWGQGTSVTVSA
VL: DIVMTQAAPSVPVTPGESVSISCRSSKSLLHSNGKIYLYWFLQRPGQSPQLLIYRMSNLASGVPDRFSGSGSGTAFTLRISRVEAEDVGVYYCMQHLEYPMTFGAGTKLEIKR
notes: heavy chain entry as PR004128
EC50 (read off the curve) (human CCR8 [16]): ~1 nM

B5: PR005172 (antibody, human IgG1, kappa, V domains shown)
VH: EVQLVESGGGLVQPKGSLKLSCAASGFTFNTYAMNWVRQAPGKGLEWVARIRSKSNNYATYYADSVKDRFTISRDDSQSMLYLQMNNLKTEDTAMYYCVRGKENGNYYAMDFWGQGTSVTVSA
VL: DIVMTQAAPSVPVTPGESVSISCRSSKSLLHSNGKIYLYWFLQRPGQSPQLLIYRMSNLASGVPDRFSGSGSGTAFTLRISRVEAEDVGVYYCMQHLEYPVTFGAGTKLEIKR
notes: heavy chain entry as PR004128
EC50 (read off the curve) (human CCR8 [16]): ~2 nM

B6: PR004970 (antibody, human IgG1, kappa, V domains shown)
VH: EVQLVESGGGLVQPGGSLRLSCAASGFTFSSYWMSWVPQAPGKGLEWVANIKQDGSAKFYVDSVKGRFTISRDNAKNSLYLQMNSLRAEDTAVYYCARSWGFAYWGQGTLVTVSS
VL: DIQMTQSPSSLSASVGDRVTITCRASQGISNYLAWYQQKPGKVPKLLIYAASTLQSGVPSRFSGSGSGTDFTLTISSLQPEDVATYYCQKYNSAPWTFGQGTKVEIKR
notes: fully human, from single cell clone screening
binding result (human CCR8 [16]): binds

B7: PR004342 (antibody, human IgG1, kappa, V domains shown)
VH: EVQLVESGGGLVQPKGSLKLSCAASGFTFNTYAMNWVRQAPGKGLEWVARIRSKSNNYATYYADSVKDRFTISRDDSQSMLYLQMNNLKTEDTAMYYCVRGKENGNYYAMDFWGQGTSVTVSA
VL: DIVMTQSPLSLPVTPGEPASISCRSSKSLLHSNGNTYLYWFLQKPGQSPQLLIYRMSNLASGVPDRFSGSGSGTDFTLKISRVEAEDVGVYYCMQHLEYPFTFGQGTKLEIKR
EC50 (human CCR8 [17]): 0.8 nM | binding result (cynomolgus monkey CCR8 [3]): no binding (tested: 200 nM)

B8: PR004346 (antibody, human IgG1, kappa, V domains shown)
VH: EVQLVESGGGLVQPKGSLKLSCAASGFTFNTYAMNWVRQAPGKGLEWVARIRSKSNNYATYYADSVKDRFTISRDDSQSMLYLQMNNLKTEDTAMYYCVRGKENGNYYAMDFWGQGTSVTVSA
VL: DIVMTQSPLSLPVTLGQPASISCRSSKSLLHSNGNTYLYWFQQRPGQSPRLLIYRMSNLASGVPDRFSGSGSGTDFTLKISRVEAEDVGVYYCMQHLEYPFTFGQGTKLEIKR
EC50 (human CCR8 [17]): 0.91 nM | binding result (cynomolgus monkey CCR8 [3]): no binding (tested: 200 nM)
